Experimental findings from US20120277164A1 (IMPERIAL INNOVATIONS, published 2012) are described below.

* marks the point of attachment. Fmoc = O=C(OCC1c2ccccc2-c2ccccc21)*; Cbz = O=C(OCc1ccccc1)*; Bz = O=C(c1ccccc1)*; βAla = NCCC(=O)O

The target in assay [1] is T1, Gadd45β/MKK7 complex (biotin-hGadd45β with coated GST-MKK7, ELISA format) (human) (UniProt O75293).
T1 sequence (biotinylated (sites not stated), looked up) 1: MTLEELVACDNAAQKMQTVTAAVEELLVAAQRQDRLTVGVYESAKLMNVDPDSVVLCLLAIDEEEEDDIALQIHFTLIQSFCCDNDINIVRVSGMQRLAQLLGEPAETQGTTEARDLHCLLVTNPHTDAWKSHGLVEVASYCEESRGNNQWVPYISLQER
T1 sequence (biotinylated (sites not stated), looked up) 2: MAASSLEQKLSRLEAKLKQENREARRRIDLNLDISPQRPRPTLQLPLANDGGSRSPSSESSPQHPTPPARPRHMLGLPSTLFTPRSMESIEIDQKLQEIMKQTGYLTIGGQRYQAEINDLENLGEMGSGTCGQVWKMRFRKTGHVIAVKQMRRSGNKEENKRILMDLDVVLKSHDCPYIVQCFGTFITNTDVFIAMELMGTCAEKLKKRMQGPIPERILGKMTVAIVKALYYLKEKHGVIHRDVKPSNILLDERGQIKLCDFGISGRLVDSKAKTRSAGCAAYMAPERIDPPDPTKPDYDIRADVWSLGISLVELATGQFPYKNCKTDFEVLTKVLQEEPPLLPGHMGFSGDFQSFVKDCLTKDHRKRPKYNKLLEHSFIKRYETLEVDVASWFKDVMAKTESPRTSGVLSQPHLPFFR
The assay can be described thus: competition ELISA; coated GST-MKK7, biotin-hGadd45β; single dose. For orientation: ELISA stands for enzyme-linked immunosorbent assay.

The target in assay [2] is T2, Gadd45β/MKK7 complex (biotin-hGadd45β with coated GST-MKK7, ELISA format) (human, UniProt O75293 1-160; O14733 1-419, biotinylated (sites not given)).
T2 construct: not shown: glutathione S-transferase (GST) fusion partner
T2 sequence (looked up) 1: T1 sequence (biotinylated (sites not stated), looked up) 1
T2 sequence (looked up) 2: T1 sequence (biotinylated (sites not stated), looked up) 2
Nature of the assay: competition ELISA; coated MKK7 42 nM, biotin-hGadd45β 21 nM, competitor 42 nM nominal.

For assay [3], the target named is T2, Gadd45β/MKK7 complex (biotin-hGadd45β …). The assay can be described thus: competition ELISA; coated GST-MKK7, biotin-hGadd45β; single dose.
The target is the same in assay [4]. The assay is described as above. The source holds these as a separate data set.

On to Fmoc-YDFQ-NH2, for which, in assay [1], the % Inhibition of Gadd45β-MKK7 binding amounted to 19%. With Bz-YDHQ-NH2 [Benzoic acid-YDHQ-NH2], in assay [1], the % Inhibition of Gadd45β-MKK7 binding came to 1%.

B1: Ac-YDHFLys(Z)-NH2 (peptide)
peptide: Ac-YDHFK(Cbz)-NH2
SMILES: CC(=O)N[C@@H](Cc1ccc(O)cc1)C(=O)N[C@@H](CC(=O)O)C(=O)N[C@@H](Cc1c[nH]cn1)C(=O)N[C@@H](Cc1ccccc1)C(=O)N[C@@H](CCCCNC(=O)OCc1ccccc1)C(N)=O
Regarding B1, the % Inhibition of Gadd45β-MKK7 binding in assay [1] was determined as 8%.

In the case of Ac-AERF-NH2 [Ac-AERF-NH2], the % Inhibition of Gadd45β-MKK7 binding in assay [1] was 7%.

B2: Ac-YDHQLys(Z)-NH2 (peptide)
peptide: Ac-YDHQK(Cbz)-NH2
SMILES: CC(=O)N[C@@H](Cc1ccc(O)cc1)C(=O)N[C@@H](CC(=O)O)C(=O)N[C@@H](Cc1c[nH]cn1)C(=O)N[C@@H](CCC(N)=O)C(=O)N[C@@H](CCCCNC(=O)OCc1ccccc1)C(N)=O
For the molecule B2, the % Inhibition of Gadd45β-MKK7 binding in assay [1] amounted to 2%. The molecule {3‑OH‑4MeO‑benzoic acid}-YDHQ-NH2 (not fully specified) [3-OH-4MeO-Benzoid acid-YDHQ-NH2] displayed a % Inhibition of Gadd45β-MKK7 binding in assay [1] of 7%. The same measure, in the same setting: for Cbz-YD(OMe)HQ-NH2 [Z-YD(OMe)HQ-NH2] the value was 3%; for Ac-YDHQ-NH2 [Ac-YDHQ-NH2], 99%.

Consider {Fmoc-βAla-βAla}-YDHF-NH2 (also called Fmoc-LTP1) [Fmoc(βAla)2-YDHF-NH2], for which the “% Inhibition of Gadd45β-MKK7 binding” value in assay [2] turned out to be 99%.

B3: Fmoc(βAla)2-YDHP-NH2 (peptide)
peptide: {Fmoc-βAla-βAla}-YDHP-NH2
SMILES: NC(=O)[C@@H]1CCCN1C(=O)[C@H](Cc1c[nH]cn1)NC(=O)[C@H](CC(=O)O)NC(=O)[C@H](Cc1ccc(O)cc1)NC(=O)CCNC(=O)CCNC(=O)OCC1c2ccccc2-c2ccccc21
For B3, the “% Inhibition of Gadd45β-MKK7 binding” value in assay [2] was found to be 16%.

B4: Fmoc(βAla)2-YDHD-NH2 (peptide)
peptide: {Fmoc-βAla-βAla}-YDHD-NH2
SMILES: NC(=O)[C@H](CC(=O)O)NC(=O)[C@H](Cc1c[nH]cn1)NC(=O)[C@H](CC(=O)O)NC(=O)[C@H](Cc1ccc(O)cc1)NC(=O)CCNC(=O)CCNC(=O)OCC1c2ccccc2-c2ccccc21
On to B4, for which the “% Inhibition of Gadd45β-MKK7 binding” value in assay [2] worked out at 0%. Ac-WEKW-NH2 [Ac-WEKW-NH2]: the “% Inhibition of Gadd45β-MKK7 binding” value in assay [3] is 65%.

B5: Fmoc(βAla)2-YDHH-NH2 (peptide)
peptide: {Fmoc-βAla-βAla}-YDHH-NH2
SMILES: NC(=O)[C@H](Cc1c[nH]cn1)NC(=O)[C@H](Cc1c[nH]cn1)NC(=O)[C@H](CC(=O)O)NC(=O)[C@H](Cc1ccc(O)cc1)NC(=O)CCNC(=O)CCNC(=O)OCC1c2ccccc2-c2ccccc21
For B5, in assay [2], the “% Inhibition of Gadd45β-MKK7 binding” value came out at 40%. With Ac-YDRW-NH2 [Ac-YDRW-NH2], the “% Inhibition of Gadd45β-MKK7 binding” value in assay [3] was 43%.

Consider Ac-YEKF-NH2 [Ac-YEKF-NH2], for which, in assay [3], the “% Inhibition of Gadd45β-MKK7 binding” value is 64%.

B6: Fmoc(βAla)2-YDHA-NH2 (peptide)
peptide: {Fmoc-βAla-βAla}-YDHA-NH2
SMILES: C[C@H](NC(=O)[C@H](Cc1c[nH]cn1)NC(=O)[C@H](CC(=O)O)NC(=O)[C@H](Cc1ccc(O)cc1)NC(=O)CCNC(=O)CCNC(=O)OCC1c2ccccc2-c2ccccc21)C(N)=O
Turning to B6, the “% Inhibition of Gadd45β-MKK7 binding” value in assay [2] worked out at 15%. Ac-YEHF-NH2 [Ac-YEHF-NH2]: the “% Inhibition of Gadd45β-MKK7 binding” value came to 23% in assay [4] and 52% in assay [3]. Turning to Ac-YEKW-NH2 [Ac-YEKW-NH2], the “% Inhibition of Gadd45β-MKK7 binding” value in assay [3] was 27%.

For Ac-WEHF-NH2 [Ac-WEHF-NH2], the “% Inhibition of Gadd45β-MKK7 binding” value in assay [3] was determined as 36%.

For the molecule Ac-WEKF-NH2 [Ac-WEKF-NH2], the “% Inhibition of Gadd45β-MKK7 binding” value in assay [3] was 65%.

B7: Fmoc(βAla)2-YDHL-NH2 (peptide)
peptide: {Fmoc-βAla-βAla}-YDHL-NH2
SMILES: CC(C)C[C@H](NC(=O)[C@H](Cc1c[nH]cn1)NC(=O)[C@H](CC(=O)O)NC(=O)[C@H](Cc1ccc(O)cc1)NC(=O)CCNC(=O)CCNC(=O)OCC1c2ccccc2-c2ccccc21)C(N)=O
As to B7, the “% Inhibition of Gadd45β-MKK7 binding” value in assay [2] stood at 33%.

B8: Fmoc(βAla)2-YDHS-NH2 (peptide)
peptide: {Fmoc-βAla-βAla}-YDHS-NH2
SMILES: NC(=O)[C@H](CO)NC(=O)[C@H](Cc1c[nH]cn1)NC(=O)[C@H](CC(=O)O)NC(=O)[C@H](Cc1ccc(O)cc1)NC(=O)CCNC(=O)CCNC(=O)OCC1c2ccccc2-c2ccccc21
For the molecule B8, the “% Inhibition of Gadd45β-MKK7 binding” value in assay [2] was 0%. For the molecule Ac-YDHW-NH2 [Ac-YDHW-NH2], the “% Inhibition of Gadd45β-MKK7 binding” value in assay [3] was found to be 58%.

B9: Fmoc(βAla)2-YDHM-NH2 (peptide)
peptide: {Fmoc-βAla-βAla}-YDHM-NH2
SMILES: CSCC[C@H](NC(=O)[C@H](Cc1c[nH]cn1)NC(=O)[C@H](CC(=O)O)NC(=O)[C@H](Cc1ccc(O)cc1)NC(=O)CCNC(=O)CCNC(=O)OCC1c2ccccc2-c2ccccc21)C(N)=O
B9: the “% Inhibition of Gadd45β-MKK7 binding” value in assay [2] amounted to 14%.

B10: Fmoc(βAla)2-YDHY-NH2 (peptide)
peptide: {Fmoc-βAla-βAla}-YDHY-NH2
SMILES: NC(=O)[C@H](Cc1ccc(O)cc1)NC(=O)[C@H](Cc1c[nH]cn1)NC(=O)[C@H](CC(=O)O)NC(=O)[C@H](Cc1ccc(O)cc1)NC(=O)CCNC(=O)CCNC(=O)OCC1c2ccccc2-c2ccccc21
On to B10, for which the “% Inhibition of Gadd45β-MKK7 binding” value in assay [2] was 63%.

B11: Fmoc(βAla)2-YDHC-NH2 (peptide)
peptide: {Fmoc-βAla-βAla}-YDHC-NH2
SMILES: NC(=O)[C@H](CS)NC(=O)[C@H](Cc1c[nH]cn1)NC(=O)[C@H](CC(=O)O)NC(=O)[C@H](Cc1ccc(O)cc1)NC(=O)CCNC(=O)CCNC(=O)OCC1c2ccccc2-c2ccccc21
In the case of B11, the “% Inhibition of Gadd45β-MKK7 binding” value in assay [2] is 44%. Regarding Ac-WERW-NH2 [Ac-WERW-NH2], the “% Inhibition of Gadd45β-MKK7 binding” value in assay [3] was 69%.

Ac-YDKW-NH2 [Ac-YDKW-NH2]: the “% Inhibition of Gadd45β-MKK7 binding” value in assay [3] was found to be 23%.

On to Ac-YERW-NH2 [Ac-YERW-NH2], for which the “% Inhibition of Gadd45β-MKK7 binding” value in assay [3] was 59%. Take {Fmoc-βAla-βAla}-YDHQ-NH2 [Fmoc(βAla)2-YDHQ-NH2]: the “% Inhibition of Gadd45β-MKK7 binding” value in assay [2] stood at 0%. Take Ac-WERF-NH2 [Ac-WERF-NH2]: the “% Inhibition of Gadd45β-MKK7 binding” value in assay [3] was determined as 29%. Same read-out and setting: for Ac-YDKF-NH2 [Ac-YDKF-NH2] the value was 35%. Consider Ac-YDRF-NH2 [Ac-YDRF-NH2], for which the “% Inhibition of Gadd45β-MKK7 binding” value in assay [4] amounted to 19%; in assay [3], 45%. For the molecule Ac-WEHW-NH2 [Ac-WEHW-NH2], the “% Inhibition of Gadd45β-MKK7 binding” value in assay [3] is 75%. The same measure, in the same setting: for Ac-YEHW-NH2 [Ac-YEHW-NH2] the value was 64%.

B12: Ac-YERFLys(Z)-NH2 (peptide)
peptide: Ac-YERFK(Cbz)-NH2
SMILES: CC(=O)N[C@@H](Cc1ccc(O)cc1)C(=O)N[C@@H](CCC(=O)O)C(=O)N[C@@H](CCCNC(=N)N)C(=O)N[C@@H](Cc1ccccc1)C(=O)N[C@@H](CCCCNC(=O)OCc1ccccc1)C(N)=O
Consider B12, for which the % Inhibition of Gadd45β-MKK7 binding in assay [1] amounted to 6%.
